Laboratory results as given in the Immune Epitope Database (IEDB).

Legend:
HLA-A*02:01 = experiment: IEDB peptide-MHC binding, purified MHC/competitive/fluorescence; ≥ and ≤ were set here for values at or beyond the usual limits of such assays
HLA-A*24:02 = experiment: as above
HLA-A*30:02 = experiment: IEDB peptide-MHC binding, purified MHC/competitive/radioactivity; filed as Kd, often an IC50 or EC50 that approximates it; ≥ and ≤ were set here for values at or beyond the usual limits of such assays
HLA-B*15:01 = experiment: as above
HLA-B*58:01 = experiment: as above
HLA-B*53:01 = experiment: as above
HLA-B*57:01 = experiment: as above
HLA-A*32:01 = experiment: as above
HLA-A*11:01 = experiment: as above
HLA-B*27:05 = experiment: IEDB peptide-MHC binding, purified MHC/direct/fluorescence; filed as Kd, often an IC50 or EC50 that approximates it; ≥ and ≤ were set here for values at or beyond the usual limits of such assays
HLA-B*48:01 = experiment: as above
HLA-A*01:01 = experiment: IEDB peptide-MHC binding, purified MHC/competitive/radioactivity; filed as Kd, often an IC50 or EC50 that approximates it; ≥ and ≤ were set here for values at or beyond the usual limits of such assays; settings: source organism: Dengue virus 3 Martinique/1243/1999
HLA-B*35:01 = experiment: as above
HLA-A*02:02 = experiment: as above; settings: source organism: Vaccinia virus WR
HLA-A*02:03 = experiment: as above; settings: source organism: Vaccinia virus WR
HLA-A*02:06 = experiment: as above; settings: source organism: Vaccinia virus WR
HLA-A*03:01 = experiment: as above; settings: source organism: Vaccinia virus WR
HLA-A*31:01 = experiment: as above; settings: source organism: Vaccinia virus WR
HLA-A*33:01 = experiment: as above; settings: source organism: Vaccinia virus WR
HLA-A*68:01 = experiment: as above; settings: source organism: Vaccinia virus WR
HLA-A*68:02 = experiment: as above; settings: source organism: Vaccinia virus WR
HLA-B*07:02 = experiment: as above; settings: source organism: Vaccinia virus WR
HLA-B*51:01 = experiment: as above; settings: source organism: Vaccinia virus WR
HLA-B*54:01 = experiment: as above; settings: source organism: Vaccinia virus WR
[1] = source organism: Sudan ebolavirus
[2] = source organism: Zaire ebolavirus
[3] = source organism: Dengue virus 1 Brazil/97-11/1997
[4] = source organism: Dengue virus 4 Dominica/814669/1981
[5] = source organism: Vaccinia virus WR
[6] = source organism: Dengue virus 2 Jamaica/1409/1983
[7] = source organism: Dengue virus 4 Philippines/H241/1956
[8] = source organism: Dengue virus 3 Martinique/1243/1999
[9] = source organism: Lassa virus Josiah
[10] = source organism: Mammarenavirus lassaense

Q: Which IC50 (HLA-A*02:01; [1]) does the source give for AFSMPLGVV here?
A: The IC50 was 8.99 µM.

Q: And the IC50 (HLA-A*24:02; [1])?
A: The IC50 was 2820 nM.

Q: With ANAGQFLSF as the sequence, how does the IC50 (HLA-A*24:02; [2]) read?
A: The IC50 was 578 nM.

Q: For AVLMLVAHY, which Kd (HLA-A*30:02; [3]) is on record?
A: The Kd was 2.19 nM.

Q: And the Kd (HLA-B*15:01; [3])?
A: The Kd was 51.2 nM.

Q: For FDAVLYYHM, which IC50 (HLA-A*02:01; [2]) is on record?
A: The IC50 was no less than 309 µM.

Q: And the IC50 (HLA-A*24:02; [2])?
A: Its IC50 is 12000 nM.

Q: How did the Kd (HLA-B*58:01; [4]) turn out when FGSVGGLFTS was run?
A: Its Kd is 220 nM.

Q: With FIIKSSYVF as the sequence, how does the Kd (HLA-B*15:01; [5]) read?
A: Its Kd is 3.23 nM.

Q: FITDNVHTW was tested. Which Kd (HLA-B*53:01; [6]) did it give?
A: The Kd was 88.7 nM.

Q: And the Kd (HLA-B*58:01; [6])?
A: Its Kd is 17.5 nM.

Q: Which results are given for FVVDNVHTW?
A: Kd (HLA-B*53:01; [4]): 8.45 nM; Kd (HLA-B*58:01; [4]): 106 nM

Q: GAAFSGVSW was tested. Which Kd (HLA-B*57:01; [6]) did it give?
A: The Kd was 22.8 nM.

Q: What about the Kd (HLA-B*58:01; [6]) of the same sequence?
A: The Kd was 126 nM.

Q: Which Kd (HLA-A*32:01; [7]) does the source give for GSSKIRWIVE here?
A: The Kd was 2.26 µM.

Q: What about the Kd (HLA-B*57:01; [7]) of the same sequence?
A: Its Kd is 868 nM.

Q: For GSSPIIEVKQ, which Kd (HLA-B*57:01; [7]) is on record?
A: Its Kd is 17000 nM.

Q: Which results are given for GTSADLTVEK?
A: Kd (HLA-A*11:01; [8]): 219 nM; Kd (HLA-B*57:01; [8]): 3510 nM

Q: With IQAFEAGVD as the sequence, how does the IC50 (HLA-A*02:01; [2]) read?
A: The IC50 was no less than 210 µM.

Q: And the IC50 (HLA-A*24:02; [2])?
A: Its IC50 is 32900 nM.

Q: ISSTPFAEYT was tested. Which Kd (HLA-B*58:01; [7]) did it give?
A: Its Kd is 2050 nM.

Q: IWMAPSLTE was tested. Which IC50 (HLA-A*24:02; [2]) did it give?
A: The IC50 was 256 nM.

Q: With KAIKILTGF as the sequence, how does the Kd (HLA-B*57:01; [7]) read?
A: Its Kd is 66.7 nM.

Q: What about the Kd (HLA-B*58:01; [7]) of the same sequence?
A: Its Kd is 22.4 nM.

Q: With KATREAQKRA as the sequence, how does the Kd (HLA-B*57:01; [6]) read?
A: Its Kd is 847 nM.

Q: What about the Kd (HLA-B*58:01; [6]) of the same sequence?
A: Its Kd is 10700 nM.

Q: With KFRKSSFFV as the sequence, how does the IC50 (HLA-A*02:01; [1]) read?
A: Its IC50 is 7.76 µM.

Q: What about the IC50 (HLA-A*24:02; [1]) of the same sequence?
A: Its IC50 is 449 nM.

Q: KLHSGKDVF was tested. Which Kd (HLA-B*15:01; [3]) did it give?
A: Its Kd is 4.82 nM.

Q: For KLRQIVAYF, which Kd (HLA-B*15:01; [5]) is on record?
A: The Kd was 7.59 nM.

Q: For KQAKAPESK, which Kd (HLA-B*27:05; [9]) is on record?
A: Its Kd is 704 nM.

Q: And the Kd (HLA-B*48:01; [9])?
A: Its Kd is no less than 20 µM.

Q: With KRASPILRF as the sequence, how does the Kd (HLA-B*27:05; [10]) read?
A: Its Kd is 87 nM.

Q: What about the Kd (HLA-B*48:01; [10]) of the same sequence?
A: The Kd was no less than 20 µM.

Q: How did the Kd (HLA-B*57:01; [3]) turn out when LGFMNEDHW was run?
A: The Kd was 26.2 nM.

Q: Which Kd (HLA-B*15:01; [7]) does the source give for LGKAVHQVF here?
A: The Kd was 477 nM.

Q: Which Kd (HLA-B*58:01; [7]) does the source give for LSIPPTAGI here?
A: Its Kd is 24.1 nM.

Q: Which results are given for LSRNSTHEMY?
A: Kd (HLA-A*01:01): 291 nM; Kd (HLA-A*30:02; [8]): 32.2 nM; Kd (HLA-B*15:01; [8]): 48.2 nM

Q: Which results are given for LTSTWVMYGT?
A: Kd (HLA-B*57:01; [4]): 2540 nM; Kd (HLA-B*58:01; [4]): 663 nM

Q: With MAILGDTAW as the sequence, how does the Kd (HLA-B*35:01; [6]) read?
A: Its Kd is 0.0331 µM.

Q: And the Kd (HLA-B*53:01; [6])?
A: The Kd was 9.79 nM.

Q: And the Kd (HLA-B*57:01; [6])?
A: The Kd was 22.6 nM.

Q: What about the Kd (HLA-B*58:01; [6]) of the same sequence?
A: The Kd was 3.34 nM.

Q: With MIKNLTQLF as the sequence, how does the Kd (HLA-B*15:01; source organism: Vaccinia virus Copenhagen) read?
A: The Kd was 5.71 nM.

Q: MLAVWNRVW was tested. Which Kd (HLA-B*57:01; [6]) did it give?
A: Its Kd is 20.6 nM.

Q: And the Kd (HLA-B*58:01; [6])?
A: The Kd was 113 nM.

Q: MTTTANWLW was tested. Which Kd (HLA-B*53:01; [7]) did it give?
A: Its Kd is 2.5 nM.

Q: What about the Kd (HLA-B*57:01; [7]) of the same sequence?
A: Its Kd is 1.62 nM.

Q: What about the Kd (HLA-B*58:01; [7]) of the same sequence?
A: The Kd was 1.05 nM.

Q: With NIREIEEHM as the sequence, how does the Kd (HLA-B*15:01; [5]) read?
A: The Kd was 234 nM.

Q: PATLFVWYFW was tested. Which Kd (HLA-A*32:01; [3]) did it give?
A: Its Kd is 15.5 µM.

Q: And the Kd (HLA-B*57:01; [3])?
A: The Kd was 169 nM.

Q: And the Kd (HLA-B*58:01; [3])?
A: The Kd was 9290 nM.

Q: Which IC50 (HLA-A*02:01; source organism: Variola virus) does the source give for PVVLTGGTG here?
A: The IC50 was no less than 167 µM.

Q: And the IC50 (HLA-A*24:02; source organism: Variola virus)?
A: The IC50 was 69800 nM.

Q: What does the source list for QIFEVYWYL?
A: Kd (HLA-A*02:02): 1.12 nM; Kd (HLA-A*02:03): 186 nM; Kd (HLA-A*02:06): 19.2 nM; Kd (HLA-A*03:01): 1060 nM; Kd (HLA-A*11:01; [5]): 67.3 nM; Kd (HLA-A*31:01): 143 nM; Kd (HLA-A*33:01): 775 nM; Kd (HLA-A*68:01): 873 nM; Kd (HLA-A*68:02): 8.89 nM; Kd (HLA-B*07:02): 16.1 µM; Kd (HLA-B*35:01; [5]): 6.5 µM; Kd (HLA-B*51:01): 5.54 µM; Kd (HLA-B*53:01; [5]): 1400 nM; Kd (HLA-B*54:01): ≥ 5 µM
